Source: PMC4762201 (Nature, 2016)

T1: Prp6 (S. cerevisiae, UniProt P19735 1-899)
T1 sequence: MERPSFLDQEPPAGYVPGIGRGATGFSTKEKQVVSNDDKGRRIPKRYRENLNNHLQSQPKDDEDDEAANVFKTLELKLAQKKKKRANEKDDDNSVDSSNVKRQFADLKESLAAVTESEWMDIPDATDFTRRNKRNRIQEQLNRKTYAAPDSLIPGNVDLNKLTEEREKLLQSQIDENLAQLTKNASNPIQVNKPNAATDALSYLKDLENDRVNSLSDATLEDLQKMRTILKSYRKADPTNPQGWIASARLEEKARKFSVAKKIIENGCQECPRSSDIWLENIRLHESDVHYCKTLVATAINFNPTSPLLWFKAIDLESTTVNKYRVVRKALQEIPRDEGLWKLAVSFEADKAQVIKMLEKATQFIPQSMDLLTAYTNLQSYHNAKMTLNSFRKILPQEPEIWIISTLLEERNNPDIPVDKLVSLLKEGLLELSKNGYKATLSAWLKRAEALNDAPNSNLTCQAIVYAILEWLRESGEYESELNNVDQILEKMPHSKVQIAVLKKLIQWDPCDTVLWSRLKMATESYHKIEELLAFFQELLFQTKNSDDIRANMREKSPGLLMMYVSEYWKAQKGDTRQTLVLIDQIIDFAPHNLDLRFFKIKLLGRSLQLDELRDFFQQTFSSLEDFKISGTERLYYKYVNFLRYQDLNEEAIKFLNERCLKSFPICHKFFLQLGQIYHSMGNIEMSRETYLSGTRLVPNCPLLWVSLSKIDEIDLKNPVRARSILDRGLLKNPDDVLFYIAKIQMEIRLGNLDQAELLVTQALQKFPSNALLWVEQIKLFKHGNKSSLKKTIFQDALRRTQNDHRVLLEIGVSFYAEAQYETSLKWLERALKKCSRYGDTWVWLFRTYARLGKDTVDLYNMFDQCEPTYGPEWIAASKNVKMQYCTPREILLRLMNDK

B1: Prp4 (natural protein)
chain: MSKYIALENLPVDLQHKGATQNESTADILKQLPHERLQAVLEKIPEEDLEVRRLLSILKKPEVVENEDVQQRRIRLAEILMVDEIDLENINNMENINGEEVDEEDDEDFFTPATSELIFARRFLINYSLERSRKRLQKEMERHQKFNTRQELLSRRTELQRMANLELAGSQLVSTKPISAVSLSTDDMVVATGSWAGDLQVLNSQTLQPLTQKLDSHVGKIGAIDWHPDSNNQMISCAEDGLIKNFQYSNEEGGLRLLGDLVGHERRISDVKYHPSGKFIGSASHDMTWRLWDASTHQELLLQEGHDKGVFSLSFQCDGSLVCSGGMDSLSMLWDIRSGSKVMTLAGHSKPIYTVAWSPNGYQVATGGGDGIINVWDIRKRDEGQLNQILAHRNIVTQVRFSKEDGGKKLVSCGYDNLINVYSSDTWLKMGSLAGHTDKIISLDISNNSHFLVSGGWDRSIKLWN
B2: Prp31 (natural protein)
chain: MSSEEDYFDELEYDLADEVNEEKEDIQTKKLTTVNCQTEKFNPFEILPESIELFRTLALISPDRLSLSETAQILPKIVDLKRILQQQEIDFIKLLPFFNEIIPLIKSNIKLMHNFLISLYSRRFPELSSLIPSPLQYSKVISILENENYSKNESDELFFHLENKAKLTREQILVLTMSMKTSFKNKEPLDIKTRTQILEANSILENLWKLQEDIGQYIASKISIIAPNVCFLVGPEIAAQLIAHAGGVLEFSRIPSCNIASIGKNKHLSHELHTLESGVRQEGYLFASDMIQKFPVSVHKQMLRMLCAKVSLAARVDAGQKNGDRNTVLAHKWKAELSKKARKLSEAPSISETKALPIPEDQPKKKRAGRKFRKYKEKFRLSHVRQLQNRMEFGKQEQTVLDSYGEEVGLGMSNTSLQQAVGATSGSRRSAGNQAKLTKVMKHRISEANQQADEFLISLGHNTEQPNLSPEMVQMHKKQHTNPEEETNWFSGHG
B3: Prp3 (natural protein)
chain: MPPRNTYEKGNPKRQNSPYYKPSFLRREETTNDEEKFQGHGLKTELHSALKSSNLNLIRRTYQTGENPYLSDPHDRGSSSRFNRRYERGLKFYQKGEISKRIAQERTLQKQQEEEELKRKLKQEEDEKDKRKLIESGDLPNLELHEDKFLLDLSKFKIYYDNNHGYEWWDTAYLDEKGELMEKYDMNGTSPAEEKLAEDIDEVDDDDDDEHPSIRYVAHPLPEKINEAKVSIKAYLTQHERKRLRRNRRKMAREAREIKIKLGLLPKPEPKVKLSNMMSVFENDQNITDPTAWEKVVKDQVDLRKRKHLEENERRHEDAIKRRKEAVNMNVEKPTVYHCKVFQFKNLQNPKIRFKLKMNSKELSLKGLCLRIRDDGPGIIIVVGNEKSCKFYENLVMKRIKWNEDFELHTNTGDIKMDMHNNSISKTWEGYLQDCKFKGWFMKVCNDQDSLLRTLGQFDSEHFYSPVQT

Columns and labels:
Assay in all cases: cryo-EM structure
[1] = molecular target: B3
[2] = molecular target: T1, Prp6
[3] = molecular target: B2
[4] = molecular target: Brr2 (S. cerevisiae, UniProt P32639 1-2163)
[5] = molecular target: B1

Sequence of Brr2 (P32639 whole entry): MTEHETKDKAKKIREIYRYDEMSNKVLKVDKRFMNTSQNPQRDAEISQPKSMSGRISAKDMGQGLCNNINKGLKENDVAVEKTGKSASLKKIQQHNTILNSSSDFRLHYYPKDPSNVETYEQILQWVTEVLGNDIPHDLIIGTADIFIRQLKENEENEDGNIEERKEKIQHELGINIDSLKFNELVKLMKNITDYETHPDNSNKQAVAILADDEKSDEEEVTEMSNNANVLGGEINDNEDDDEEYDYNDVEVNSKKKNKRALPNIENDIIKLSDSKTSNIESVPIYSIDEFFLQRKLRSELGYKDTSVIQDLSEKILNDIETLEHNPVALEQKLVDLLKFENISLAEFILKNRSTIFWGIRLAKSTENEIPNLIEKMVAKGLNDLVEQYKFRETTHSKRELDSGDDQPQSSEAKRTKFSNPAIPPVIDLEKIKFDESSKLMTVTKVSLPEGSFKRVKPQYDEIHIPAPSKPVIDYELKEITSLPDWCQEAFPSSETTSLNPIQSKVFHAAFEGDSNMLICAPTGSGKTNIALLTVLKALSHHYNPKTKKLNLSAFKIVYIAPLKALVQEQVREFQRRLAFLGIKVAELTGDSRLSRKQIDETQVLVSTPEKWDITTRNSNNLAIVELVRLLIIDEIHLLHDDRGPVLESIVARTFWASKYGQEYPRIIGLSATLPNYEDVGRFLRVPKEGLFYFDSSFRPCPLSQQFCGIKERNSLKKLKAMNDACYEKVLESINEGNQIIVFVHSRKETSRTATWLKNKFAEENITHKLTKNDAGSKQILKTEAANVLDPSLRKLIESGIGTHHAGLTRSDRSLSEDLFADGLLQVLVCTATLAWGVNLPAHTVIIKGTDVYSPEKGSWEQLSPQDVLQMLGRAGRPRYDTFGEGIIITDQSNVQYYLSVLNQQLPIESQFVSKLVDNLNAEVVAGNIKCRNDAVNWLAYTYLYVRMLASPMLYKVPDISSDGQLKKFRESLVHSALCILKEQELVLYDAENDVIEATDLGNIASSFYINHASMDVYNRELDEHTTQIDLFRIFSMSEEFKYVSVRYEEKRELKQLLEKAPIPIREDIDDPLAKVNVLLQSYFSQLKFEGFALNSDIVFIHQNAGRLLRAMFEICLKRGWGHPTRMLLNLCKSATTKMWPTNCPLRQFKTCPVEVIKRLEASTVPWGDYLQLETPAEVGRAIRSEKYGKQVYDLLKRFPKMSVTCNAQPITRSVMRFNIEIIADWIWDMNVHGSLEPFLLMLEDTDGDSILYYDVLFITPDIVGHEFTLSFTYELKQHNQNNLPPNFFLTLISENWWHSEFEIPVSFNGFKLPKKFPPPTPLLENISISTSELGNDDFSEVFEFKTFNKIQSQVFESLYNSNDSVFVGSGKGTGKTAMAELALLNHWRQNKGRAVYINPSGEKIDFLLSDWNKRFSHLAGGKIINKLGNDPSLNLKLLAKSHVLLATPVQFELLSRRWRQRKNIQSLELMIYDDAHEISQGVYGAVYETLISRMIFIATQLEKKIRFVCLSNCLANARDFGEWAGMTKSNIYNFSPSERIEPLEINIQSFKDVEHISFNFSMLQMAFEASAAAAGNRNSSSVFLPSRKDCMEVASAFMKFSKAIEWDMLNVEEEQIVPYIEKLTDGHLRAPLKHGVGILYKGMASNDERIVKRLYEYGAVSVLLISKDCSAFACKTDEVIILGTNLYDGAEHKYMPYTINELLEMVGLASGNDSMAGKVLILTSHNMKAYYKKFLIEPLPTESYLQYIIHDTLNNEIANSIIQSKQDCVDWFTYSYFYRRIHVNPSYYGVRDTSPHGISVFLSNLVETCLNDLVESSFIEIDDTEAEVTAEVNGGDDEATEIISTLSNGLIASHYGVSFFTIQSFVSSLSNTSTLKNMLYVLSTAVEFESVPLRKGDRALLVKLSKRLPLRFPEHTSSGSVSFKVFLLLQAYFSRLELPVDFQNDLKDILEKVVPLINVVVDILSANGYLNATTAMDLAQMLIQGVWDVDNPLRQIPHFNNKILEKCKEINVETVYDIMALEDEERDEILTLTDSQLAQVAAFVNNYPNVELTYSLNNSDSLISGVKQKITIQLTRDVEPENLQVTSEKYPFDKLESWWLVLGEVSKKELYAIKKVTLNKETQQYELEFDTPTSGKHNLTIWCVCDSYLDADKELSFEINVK

| binding result [1] | binding result [3] | binding result [4] | Binder | further results |
| --- | --- | --- | --- | --- |
| binds | – | – | B1 | – |
| – | – | – | B2 | binding result [2]: binds |
| – | binds | – | Dib1 (natural protein, S. cerevisiae, UniProt Q06819 1-143, looked up) MASVLLPQLRTGWHVDQAIVTETKRLVVIRFGRKNDRQCMIMDELLSSIAERVRNFAVIYLCDIDEVSDFDEMYELTDPMTVMFFYHNKHMMCDFGTGNNNKLNFIVDDKQEMIDILETIFRGARKNKGLVVSPYDYNHKRVS | – |
| – | – | binds | Snu66 (natural protein, S. cerevisiae, UniProt Q12420 1-587, looked up) MNKTENLSIEETNEIREKLGMKPIPVFQEKNTDHKESLSIEETNELRASLGLKLIPPQQNFNSSPPNVHNTSKIDELREKITKFQKKANAPLRMAHLLEETNVNDDSSWLENMDAIPSSHESKRSSTLPRKGATKEDENIDLHNVQVSYNIEALSPKKDTILTLKESSIFDDTDSTEVLENVKAAEENADREKLRLRQMNKDRRQKKKILNVSSLDIEEEEEGEKHSITTTHLIIGAEQGVMKAPNTISAKPPTGKVKVNFDSANNMSDEDGGDFKPLKIKKRKIKDPRSTKARKSKITDKMEIVKLVDEDESLSWMEEEQPVTIINPRTSSNNELKGPEDLAREIEKARDEEKRRTESILKMREISNSIVVDEKVTFLNTLDTSLSERSATENKVKVHGEGEKNIGDVTNGHTKEGSGNNTLTEAVNNEPNYEGDAENAPNFFSGLASTLGYLRKKSVFTTGDVDLKPGKDVNNSESLRRDVRNKEHTGTGTYTKDKLHGLEQFTSSDSSNANTHSKRQDHYDPDIKLVYRDEKGNRLTTKEAYKKLSQKFHGTKSNKKKRAKMKSRIEARKNTPENGSLFEFDDN | – |
| binds | binds | – | Snu13 (natural protein, S. cerevisiae, UniProt P39990 1-126, looked up) MSAPNPKAFPLADAALTQQILDVVQQAANLRQLKKGANEATKTLNRGISEFIIMAADCEPIEILLHLPLLCEDKNVPYVFVPSRVALGRACGVSRPVIAASITTNDASAIKTQIYAVKDKIETLLI | binding result [5]: binds |
| – | – | binds | B3 | – |
